Laboratory results: the supplement of paper PMC9233669
Fewer inactive variants are shown than the library holds.

Key:
biotinyl-Ile-oxazolone = test: self-aminoacylation, catalytic enhancement (BIO) (fold over background); higher = more active; k-Seq, kA / k0A0; sequences stand for … in GGGAAUGGAUCCACAUCUACGAAUUC…UUCACUGCAGACUUGACGAAGCUG
In short: (§1)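 The uncatalyzed rate is the low-activity peak of a bimodal Gaussian fit, and catalytic enhancement is median kA divided by it. The kA values came from pseudo-first-order fits, with 1000 bootstraps, of per-sequence fraction reacted measured by streptavidin capture, triplicate qPCR and Illumina sequencing. Mutagenized RNA pools with a 21-nt variable region (0.43 μM) were reacted with each biotinyl-aminoacyl-oxazolone at 2–1250 μM in 50 μL HEPES/NaCl/KCl/MgCl2/CaCl2 buffer with 5% acetonitrile, pH 6.9–7.0, for 90 minutes at room temperature.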

biotinyl-Met-oxazolone = test: self-aminoacylation, catalytic enhancement (BMO) (fold over background); higher = more active; k-Seq, kA / k0A0; sequences stand for … in GGGAAUGGAUCCACAUCUACGAAUUC…UUCACUGCAGACUUGACGAAGCUG
In short: as §1

biotinyl-Phe-oxazolone = test: self-aminoacylation, catalytic enhancement (BFO) (fold over background); higher = more active; k-Seq, kA / k0A0; sequences stand for … in GGGAAUGGAUCCACAUCUACGAAUUC…UUCACUGCAGACUUGACGAAGCUG
In short: as §1

biotinyl-Val-oxazolone = test: self-aminoacylation, catalytic enhancement (BVO) (fold over background); higher = more active; k-Seq, kA / k0A0; sequences stand for … in GGGAAUGGAUCCACAUCUACGAAUUC…UUCACUGCAGACUUGACGAAGCUG
In short: as §1

biotinyl-Trp-oxazolone = test: self-aminoacylation, catalytic enhancement (BWO) (fold over background); higher = more active; k-Seq, kA / k0A0; sequences stand for … in GGGAAUGGAUCCACAUCUACGAAUUC…UUCACUGCAGACUUGACGAAGCUG
In short: as §1

biotinyl-Leu-oxazolone = test: self-aminoacylation, catalytic enhancement (BLO) (fold over background); higher = more active; k-Seq, kA / k0A0; sequences stand for … in GGGAAUGGAUCCACAUCUACGAAUUC…UUCACUGCAGACUUGACGAAGCUG
In short: as §1

Row | Sequence | self-aminoacylation (biotinyl-Ile-oxazolone) | self-aminoacylation (biotinyl-Met-oxazolone) | self-aminoacylation (biotinyl-Phe-oxazolone) | self-aminoacylation (biotinyl-Val-oxazolone) | self-aminoacylation (biotinyl-Trp-oxazolone) | self-aminoacylation (biotinyl-Leu-oxazolone)
1 | AUUACGCUGUUCAUCGAGUGA [Fam2.1 aminoacylation ribozyme variant] | 2.4 | 3.87 | 4.19 | 2.71 | 4.58 | 3.57
2 | AUUACUCCGGUCAUCGAGUGA [Fam2.1 aminoacylation ribozyme variant] | 2.81 | 5.22 | 16 | 2.64 | 5.76 | 5.43
3 | AUUACUCUGGUCAGCGAGUGA [Fam2.1 aminoacylation ribozyme variant] | 3.29 | 5.21 | 17.6 | 3.13 | 5.85 | 5.83
4 | AUUACUCUGGUCAUCCAGUGA [Fam2.1 aminoacylation ribozyme variant] | 3.2 | 5.01 | 17.3 | 2.74 | 6.01 | 5.29
5 | AUUACUCUGGUCAUUGAGUGA [Fam2.1 aminoacylation ribozyme variant] | 4.15 | 7.88 | 32.7 | 3.61 | 9.3 | 8.45
6 | AUUACUGUGGUCAUCGAGUGA [Fam2.1 aminoacylation ribozyme variant] | 2.65 | 4.65 | 14.1 | 2.56 | 5.16 | 4.25
7 | AUUAGACUGGUCAUCGAGUGA [Fam2.1 aminoacylation ribozyme variant] | 3 | 4.4 | 7.88 | 2.56 | 4.81 | 3.73
8 | AUUAGCCUGAUCAUCGAGUGA [Fam2.1 aminoacylation ribozyme variant] | 4.82 | 10.4 | 46.7 | 4.4 | 11 | 10.6
9 | AUUAGCCUGGUCAUCGAGUGA [Fam2.1 aminoacylation ribozyme variant] | 4.61 | 7.22 | 21.7 | 4.55 | 9.2 | 7.65
10 | AUUAGCCUGGUCAUCGAGUGU [Fam2.1 aminoacylation ribozyme variant] | 2.76 | 4.71 | 3.87 | 3.14 | 5.12 | 4.18
11 | AUUAGCCUUGUCAUCGAGUGA [Fam2.1 aminoacylation ribozyme variant] | 2.85 | 3.73 | 6.72 | 2.76 | 4.07 | 3.97
12 | AUUAUCCGGGUCAUCGAGUGA [Fam2.1 aminoacylation ribozyme variant] | 4.14 | 8.26 | 45.7 | 4.04 | 8.13 | 8.08
13 | AUUAUCCUGGUCAACGAGUGA [Fam2.1 aminoacylation ribozyme variant] | 3.69 | 6.62 | 30.1 | 3.87 | 7.67 | 8.02
14 | AUUAUCCUGGUCAGCGAGUGA [Fam2.1 aminoacylation ribozyme variant] | 3.04 | 5.26 | 17.7 | 3.13 | 6.53 | 5.28
15 | AUUAUCCUGGUCAUCGAGUAA [Fam2.1 aminoacylation ribozyme variant] | 1.43 | 2.03 | 2.69 | 1.39 | 1.08 | 1.85
16 | AUUAUCCUGGUCAUCGCGUGA [Fam2.1 aminoacylation ribozyme variant] | 6.96 | 17.9 | 146 | 8.29 | 19.3 | 19.9
17 | AUUAUCCUGGUCAUGGAGUGA [Fam2.1 aminoacylation ribozyme variant] | 2.67 | 4.22 | 13.6 | 2.6 | 5.21 | 4.6
18 | AUUCAACCAGGUCAUCGGGUG [Fam2.2 aminoacylation ribozyme variant] | 4.64 | 5.83 | 58.9 | 4.22 | 6.24 | 7.64
19 | AUUCAACGAGGUCAUCGGGUG [Fam2.2 aminoacylation ribozyme variant] | 3.97 | 7.46 | 54.8 | 5.11 | 6.07 | 9.27
20 | AUUCAACUAAGUCAUCGGGUG [Fam2.2 aminoacylation ribozyme variant] | 4.92 | 7.12 | 69.4 | 4.13 | 7.24 | 10.7
21 | AUUCAACUAGGUCAUAGGGUG [Fam2.2 aminoacylation ribozyme variant] | 1.49 | 2 | 9.13 | 1.28 | 1.47 | 2.58
22 | AUUCAACUAGGUCUUCGGGUG [Fam2.2 aminoacylation ribozyme variant] | 2.93 | 4.21 | 29.8 | 3.01 | 4.34 | 4.84
23 | AUUCAACUAGGUUAUCGGGUG [Fam2.2 aminoacylation ribozyme variant] | 2.21 | 3.29 | 22.1 | 2.45 | 3.46 | 3.61
24 | AUUCAACUAGUUCAUCGGGUG [Fam2.2 aminoacylation ribozyme variant] | 1.95 | 2.82 | 16.8 | 1.95 | 2.29 | 2.77
25 | AUUCACAUAGAUCAUCGGGUG [Fam2.2 aminoacylation ribozyme variant] | 2.93 | 4.43 | 35.2 | 2.8 | 3.84 | 5.04
26 | AUUCACAUAGCUCAUCGGGUG [Fam2.2 aminoacylation ribozyme variant] | 2 | 1.91 | 12.6 | 2.38 | 2.34 | 2.36
